Test results as given in patent US20040022767A1 (Genentech, published 2004).

How the values were obtained:
[1] = biological target: T1, soluble rat elk/Fc fusion protein (rat; human, UniProt P09759 18-540; P01857 99-330 = IgG part, limits assumed); assay: indirect Scatchard analysis, biphasic, first component; elk/Fc titrated on transfected CV-1/EBNA-1 cells, detected with 125I-mouse anti-human IgG
T1 construct: extracellular domain;domain: Fc region (hinge to native C-terminus)

[2] = biological target: T1, soluble rat elk/Fc fusion protein; assay: indirect Scatchard analysis, biphasic, second component; elk/Fc titrated on transfected CV-1/EBNA-1 cells, detected with 125I-mouse anti-human IgG
[3] = biological target: T2, soluble hek/Fc fusion protein (human, UniProt P29320 21-541; P01857 99-330 = IgG part, limits assumed); assay: indirect Scatchard analysis; hek/Fc titrated on transfected CV-1/EBNA-1 cells, detected with 125I-mouse anti-human IgG
T2 construct: extracellular domain;domain: Fc region (hinge to native C-terminus); The extracellular domain and the dimeric state are inferred from that analogy

[4] = biological target: T1, soluble rat elk/Fc fusion protein; assay: indirect Scatchard analysis; elk/Fc titrated on transfected CV-1/EBNA-1 cells, detected with 125I-mouse anti-human IgG
Excerpt: CV1-EBNA-1 cells (described in Example 3) in 12-well plates (2.5×10⁵ cells/well) were transfected with an expression vector containing the clone E7 elk-L cDNA. The mammalian expression vector, designated pDC410, is similar to pDC406 (McMahan et al., EMBO J. 10:2821, 1991). In pDC410, the EBV origin of replication of pDC406 is replaced by DNA encoding the SV40 large T antigen (driven from an SV40 promoter). The pDC410 multiple cloning site (mcs) differs from that of pDC406 in that it contains additional restriction sites and three stop codons (one in each reading frome). A T7 polymerase promoter downstream of the mcs facilitates sequencing of DNA inserted into the mcs. The transfected cells were cultured for two days to permit expression of the elk-L protein, then washed with BM-NFDMv (the binding medium described in Example 2, also containing 50 mg/ml nonfat dry milk), and incubated with various concentrations of the elk/Fc fusion protein prepared in Example 1, for 1 hour at 37° C. Subsequently, cells were washed and incubated with a constant saturating concentration of the ¹²⁵I-labeled mouse anti-human IgG antibody prepared in Example 2 (40 ng/ml) in binding medium with gentle agitation for 1 hour at 37° C. Cells then were harvested by trypsinization. […]

[5] = biological target: T2, soluble hek/Fc fusion protein; assay: indirect Scatchard analysis, biphasic, second component; hek/Fc titrated on transfected CV-1/EBNA-1 cells, detected with 125I-mouse anti-human IgG
[6] = biological target: T2, soluble hek/Fc fusion protein; assay: indirect Scatchard analysis, biphasic, first component; hek/Fc titrated on transfected CV-1/EBNA-1 cells, detected with 125I-mouse anti-human IgG

T2 sequence (P29320 other isoform, or with tags, fused parts or gaps limits assumed): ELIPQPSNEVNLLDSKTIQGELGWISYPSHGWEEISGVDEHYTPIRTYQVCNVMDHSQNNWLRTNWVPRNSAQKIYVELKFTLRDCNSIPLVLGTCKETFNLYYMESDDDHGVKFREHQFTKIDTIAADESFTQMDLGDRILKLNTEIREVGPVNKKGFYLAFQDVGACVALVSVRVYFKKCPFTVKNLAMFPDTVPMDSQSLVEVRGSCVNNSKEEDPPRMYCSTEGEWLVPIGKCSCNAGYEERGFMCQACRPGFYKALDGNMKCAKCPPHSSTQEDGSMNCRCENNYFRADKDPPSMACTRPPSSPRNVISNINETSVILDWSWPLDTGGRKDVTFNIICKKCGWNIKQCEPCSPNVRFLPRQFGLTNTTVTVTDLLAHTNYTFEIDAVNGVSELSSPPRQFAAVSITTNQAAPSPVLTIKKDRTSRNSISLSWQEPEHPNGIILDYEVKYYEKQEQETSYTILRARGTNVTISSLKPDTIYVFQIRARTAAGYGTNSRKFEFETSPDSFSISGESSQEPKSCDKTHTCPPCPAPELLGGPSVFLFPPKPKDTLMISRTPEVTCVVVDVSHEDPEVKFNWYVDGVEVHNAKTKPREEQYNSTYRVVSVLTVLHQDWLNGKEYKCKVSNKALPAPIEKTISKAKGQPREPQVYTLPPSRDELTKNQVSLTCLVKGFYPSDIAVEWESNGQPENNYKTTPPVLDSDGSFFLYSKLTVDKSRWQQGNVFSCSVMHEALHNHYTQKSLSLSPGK
T1 sequence (P09759 other isoform, or with tags, fused parts or gaps limits assumed): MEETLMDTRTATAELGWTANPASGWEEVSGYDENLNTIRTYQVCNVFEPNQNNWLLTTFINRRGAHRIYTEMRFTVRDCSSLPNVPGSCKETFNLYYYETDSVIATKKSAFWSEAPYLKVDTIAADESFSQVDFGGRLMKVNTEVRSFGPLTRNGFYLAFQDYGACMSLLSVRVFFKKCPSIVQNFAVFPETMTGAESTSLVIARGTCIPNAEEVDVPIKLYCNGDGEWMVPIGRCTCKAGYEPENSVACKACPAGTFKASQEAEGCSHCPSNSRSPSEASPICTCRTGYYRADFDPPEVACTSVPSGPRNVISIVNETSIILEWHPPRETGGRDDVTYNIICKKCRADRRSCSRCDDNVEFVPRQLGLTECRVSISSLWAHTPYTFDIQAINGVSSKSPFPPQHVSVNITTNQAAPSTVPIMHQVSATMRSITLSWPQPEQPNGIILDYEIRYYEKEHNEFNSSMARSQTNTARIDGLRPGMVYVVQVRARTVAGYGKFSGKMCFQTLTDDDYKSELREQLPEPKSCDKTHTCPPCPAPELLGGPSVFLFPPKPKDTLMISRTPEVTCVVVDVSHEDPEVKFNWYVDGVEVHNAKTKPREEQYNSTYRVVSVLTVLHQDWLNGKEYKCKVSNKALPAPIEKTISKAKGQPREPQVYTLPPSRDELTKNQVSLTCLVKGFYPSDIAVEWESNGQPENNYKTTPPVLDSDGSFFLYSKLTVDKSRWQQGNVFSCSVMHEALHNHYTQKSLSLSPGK

B1: hek-L protein designated A2, expressed on transfected CV-1/EBNA-1 cells (ligand, UniProt P52797 23-214, looked up)
chain: QGPGGALGNRHAVYWNSSNQHLRREGYTVQVNVNDYLDIYCPHYNSSGVGPGAGPGPGGGAEQYVLYMVSRNGYRTCNASQGFKRWECNRPHAPHSPIKFSEKFQRYSAFSLGYEFHAGHEYYYISTPTHNLHWKCLRMKVFVCCASTSHSGEKPVPTLPQFTMGPNVKINVLEDFEGENPQVPKLEKSISG
notes: whole, on cells; also called hek-L A2; hek ligand A2
[1]
  Ka: 2.7e+08 M⁻¹
[2]
  Ka: 3.5e+07 M⁻¹
[3]
  Ka: 2e+08 M⁻¹

B2: hek-L protein designated C6, expressed on transfected CV-1/EBNA-1 cells (ligand, UniProt P52798 26-170, looked up)
chain: LRHVVYWNSSNPRLLRGDAVVELGLNDYLDIVCPHYEGPGPPEGPETFALYMVDWPGYESCQAEGPRAYKRWVCSLPFGHVQFSEKIQRFTPFSLGFEFLPGETYYYISVPTPESSGQCLRLQVSVCCKERKSESAHPVGSPGES
notes: whole, on cells; also called hek-L C6; hek ligand C6
[1]
  Ka: 1.3e+08 M⁻¹
[2]
  Ka: 5.4e+07 M⁻¹
[3]
  Ka: 2e+08 M⁻¹

B3: human elk ligand (elk-L), clone E7, expressed on transfected CV-1/EBNA-1 cells (ligand)
chain: ATPLAKNLEPVSWSSLNPKFLSGKGLVIYPKIGDKLDIICPRAEAGRPYEYYKLYLVRPEQAAACSTVLDPNVLVTCNRPEQEIRFTIKFQEFSPNYMGLEFKKHHDYYITSTSNGSLEGLENREGGVCRTRTMKIIMKVGQDPNAVTPEQLTTSRPSKEADNTVKMATQAPGSRGSLGDSDGKHETVNQEEKSGPGASGGSSGDPDGFFNSKVALFAAVGAGCVIFLLIIIFLTVLLLKLRKRHRKHTQQRAAALSLSTLASPKGGSGTAGTEPSDIIIPLRTTENNYCPHYEKVSGDYGHPVYIVQEMPPQSPANIYYKV
[4]
  Ka: 1.08e+09 M⁻¹
[5]
  Ka: 2.9e+06 M⁻¹
[6]
  Ka: 2.3e+07 M⁻¹

B4: B61 protein expressed on transfected CV-1/EBNA-1 cells (ligand, human, UniProt P20827 19-182, looked up)
chain: DRHTVFWNSSNPKFRNEDYTIHVQLNDYVDIICPHYEDHSVADAAMEQYILYLVEHEEYQLCQPQSKDQVRWQCNRPSAKHGPEKLSEKFQRFTPFTLGKEFKEGHSYYYISKPIHQHEDRCLRLKVTVSGKITHSPQAHDNPQEKRLAADDPEVRVLHSIGHS
notes: whole, on cells
[1]
  Ka: 2.3e+08 M⁻¹
[2]
  Ka: 7e+07 M⁻¹
[3]
  Ka: 5.5e+07 M⁻¹
